This data set has as its system Bacillus subtilis. As to the kind of experiment: cleaved RNA product abundance (RNA/gDNA barcode ratio) relative to median wild-type variant (ratio to wild type); higher = more accumulation of the downstream cleavage product. An outline of the steps:
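Reporter mRNAs (truncated aprE or tetM) carrying barcoded, mutagenized RNase Y cleavage-site windows were made from oligos with a 9% error rate and integrated into the B. subtilis chromosome. Cultures grew in LB at 37°C from OD600 0.0003 to 0.3. Cleaved RNA was gel-selected, reverse transcribed and barcode-sequenced alongside genomic DNA barcodes, with UMI collapsing. Cleaved product abundance is the RNA:gDNA barcode ratio per variant, scaled to the median wild-type variant.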

The mark [1] stands for this setting: experiment (reporter, strain, medium): exp 2b: truncated aprE reporter, strain BJT200, cleavage site: cggR-gapA (positions -7 to +36 mutated).
[2] abbreviates: experiment (reporter, strain, medium): exp 4a: truncated aprE reporter, strain BJT201 with 2% xylose (RNase J1 expressed), cleavage site: cggR-gapA (positions -7 to +36 mutated).
Setting [3] is: experiment (reporter, strain, medium): exp 8a: truncated aprE reporter, strain BJT201 with 2% xylose (RNase J1 expressed), cleavage site: glnRA (positions -5 to +31 mutated).
The mark [4] stands for this setting: experiment (reporter, strain, medium): exp 6: tetM reporter, strain 168, cleavage site: cggR-gapA (positions -7 to +36 mutated).

From the supplement of paper PMC11780869 come the findings set out here.

Regarding “ACAGACGAAGGAGCCGCAAAGAAGTTATTAAGGGATGAATAATCCCTCAAAATACATATCTCTCACTTATTTAAA”, the “cleaved RNA product abundance” value is, setting by setting: under setting [1], 0.202; under setting [2], 0.3.

In the case of “ACAGACGAAGGAGCCGCAAAGAAGTTATAAAGGGATGAAAAATCCCTCAATATAAATATCTCTCACTTATTTAAA”, the “cleaved RNA product abundance” value under setting [2] stood at 0.4.

In the case of “ACAGACGAAGGAGCCGCAAAGAAGTTATAAAGGGATGAATAATGCCTCAATATAAATATCTCTCACTTATTTAAA”, the “cleaved RNA product abundance” value under setting [1] was 0.113.

Take “ACAGACGAAGGAGCCGCAAATAAGTTATTAAGGGATGAATAATCCCTCAATATTAATATCTCTCACTTATTTAAA”: the “cleaved RNA product abundance” value under setting [2] was 0.156.

With “ACAGACGAAGGAGCCGCAAAGAAGTCATTAAGGGATGTATAATCCCTCAATATAAATATCTCTCACTTATTTAAA”, under setting [1], the “cleaved RNA product abundance” value came out at 0.16.

In the case of “ACAGACGAAGGAGCCGCAAAGAAGTTATTAAGGGATGAATAATCACTCGATATAAATATCTCTCACTTATTTAAA”, the “cleaved RNA product abundance” value under setting [2] was 0.0689.

Regarding “ACAGACGAAGGAGCCGCAAAGAAGTTATTAAGGGATGAATAATCCCTCTAAATAAATATCTCTCACTTATTTAAA”, the “cleaved RNA product abundance” value is, setting by setting: under setting [1], 0.36; under setting [2], 0.429.

In the case of “ACAGACGAAGGAGCCGCAAAAAAGTTATTAAGGGATGAATAATCCCTCCATATAAATATCTCTCACTTATTTAAA”, the “cleaved RNA product abundance” value under setting [2] came out at 0.348.

For the sequence “CGACATGTCCCGCTTCTTTCATTAATCCGTTAGCAACTGTTTTGCTAGATACATTTACCTTTTAAGAGGAGGAAT”, under setting [3], the “cleaved RNA product abundance” value is 0.43.

Turning to “ACAGACGAAGGAGCCGCAAAGAAGTTATTAACGGATGAATAGTCCCTCAATATAAATATCTCTCACTTATTTAAA”, the “cleaved RNA product abundance” value under setting [2] came to 0.174.

For the sequence “ACAGACGAAGGAGCCGCAAAGAAGTTATTAAGGGATGAATAATGCCTCTATATAAATATCTCTCACTTATTTAAA”, the “cleaved RNA product abundance” value under setting [1] was 0.111.

On to “ACAGACGAAGGAGCCGCAAAGAAGTTATTAAGGGATGAATAATCCCTGAATATATATATCTCTCACTTATTTAAA”, for which the “cleaved RNA product abundance” value by setting is: under setting [1], 0.477; under setting [2], 0.598.

In the case of “ACAGACGAAGGAGCCGCAAAGAAGTTATTAAGCGATGAATAATCCATCAATATAAATATCTCTCACTTATTTAAA”, the “cleaved RNA product abundance” value is, setting by setting: under setting [1], 0.121; under setting [2], 0.154.

For “ACAGACGAAGGAGCCGCAAAGAAGTTATTAAGGGATGAATAATCCCTCAATATCAATATCTCTCACTTATTTAAA”, the “cleaved RNA product abundance” value by setting is: under setting [1], 0.126; under setting [2], 0.103; under setting [4], 0.216.

Regarding “ACAGACGAAGGAGCCGCAAATAAGTTATTAAGGTATGAATAATCCCTCAATATAAATTTCTCTCACTTATTTAAA”, the “cleaved RNA product abundance” value under setting [2] was found to be 0.159.

In the case of “ACAGACGAAGGAGCCGCAAAGAAGTTATTAAGGGACGATTAATCCCTCAATATAAATATCTCTCACTTATTTAAA”, the “cleaved RNA product abundance” value under setting [2] came to 0.349.

As for “ACAGACGAAGGAGCCGCAAAGAAGTTATTAAGGGACGAATAATCCCACAATATAAATATCTCTCACTTATTTAAA”, the “cleaved RNA product abundance” value under setting [1] is 0.13.

“ACAGACGAAGGAGCCGCAAAGAACTTATTAAGGGACGAATAATCCCTCAATATAAATATCTCTCACTTATTTAAA”: the “cleaved RNA product abundance” value runs as follows: under setting [1], 0.375; under setting [2], 0.389.

Consider “ACAGACGAAGGAGCCGCATAGAAGTTATTAAGGCATGAATAAGCCCTCAATATAAATATCTCTCACTTATTTAAA”, for which the “cleaved RNA product abundance” value under setting [2] was 0.143.

For “CGACATGTCCCGCTTCTTTCATTAATCCGTTAGCTACTGTTTTGCTATATACATTTATCTTTTAAGAGGAGGAAT”, under setting [3], the “cleaved RNA product abundance” value was 0.798.

Turning to “ACAGACGAAGGAGCCGCAAAGAAGTTATTAAGGGATGAATAAACCCTCAATATAGATATCTCTCACTTATTTAAA”, the “cleaved RNA product abundance” value under setting [1] was 0.365 and the “cleaved RNA product abundance” value under setting [2] was determined as 0.342.

On to “CGACATGTCCCGCTTCTTTCATTAATCCGTTAGTTACTGTTTTGCTATATACATTTACCTTTTAAGAGGAGGAAT”, for which the “cleaved RNA product abundance” value under setting [3] came to 0.365.

As for “ACAGACGAAGGAGCCGCAAAGAAGTTATTAAGGGATGAATAATCCCACATTATAAATATCTCTCACTTATTTAAA”, the “cleaved RNA product abundance” value under setting [2] came to 0.152.

Consider “ACAGACGAAGGAGCCGCAAAGAAGTTATTAAGGAATGAATAATCCCTTAATATAAATATCTCTCACTTATTTAAA”, for which the “cleaved RNA product abundance” value reads like this: under setting [1], 0.68; under setting [2], 0.588.

In the case of “ACAGACGAAGGAGCCGCAAAGAAGTTATTAAGGAATGAATAATCGCTCAATATAAATATCTCTCACTTATTTAAA”, under setting [2], the “cleaved RNA product abundance” value is 0.0645.

For the sequence “ACAGACGAAGGAGCCGCAAAGTAGTTATTAAAGGATGAATAATCCATCAATATAAATATCTCTCACTTATTTAAA”, the “cleaved RNA product abundance” value under setting [2] stood at 0.153.

Take “ACAGACGAAGGAGCCGCAAAGAAGTTATTACGGGATGATTAATCCCTCAATATAAATATCTCTCACTTATTTAAA”: the “cleaved RNA product abundance” value under setting [2] stood at 0.204.

Take “ACAGACGAAGGAGCCGCAAAGAAGTTAGTAAGGGATGAATAATCCGTCAATATAAATATCTCTCACTTATTTAAA”: the “cleaved RNA product abundance” value under setting [2] is 0.218.

For the sequence “ACAGACGAAGGAGCCGCAAGGAAGTTATTAAGTGATGAATAATCCCTCAATATAAATATCTCTCACTTATTTAAA”, the “cleaved RNA product abundance” value under setting [2] was 0.149.

For “CGACATGTCCCGCTTCTTTCATTAATCCGTTAGCAACTGTTTTGCTATATACATTTACCCTTTAAGAGGAGGAAT”, under setting [3], the “cleaved RNA product abundance” value was 0.763.

In the case of “ACAGACGAAGGAGCCGCAAAGGAGTTAATAAGGGATGAATAATCCCTCAATATAAATATCTCTCACTTATTTAAA”, the “cleaved RNA product abundance” value is 0.34 under setting [1] and 0.436 under setting [2].

For “CGACATGTCCCGCTTCTTTCATTAATCCGTTAGCAACTGTTGTGCTATATACATTTACCTTTTAAGAGGAGGAAT”, the “cleaved RNA product abundance” value under setting [3] turned out to be 0.516.

In the case of “ACAGACGAAGGAGCCGCAAAGAAGTTATTCAGGGATGAATAATCCATCAATATAAATATCTCTCACTTATTTAAA”, the “cleaved RNA product abundance” value under setting [2] is 0.319.

Regarding “ACAGACGAAGGAGCCGCAAACAAGTTATTAAGGTATGAATAATCCCTCAATATAAATATCTCTCACTTATTTAAA”, the “cleaved RNA product abundance” value runs as follows: under setting [1], 0.102; under setting [2], 0.0749.

Consider “ACAGACGAAGGAGCCGCAAAGAAGTTATTAAGCGATGCATAATCCCTCAATATAAATATCTCTCACTTATTTAAA”, for which, under setting [2], the “cleaved RNA product abundance” value is 0.125.

“ACAGACGAAGGAGCCGCAAAGAAGTTACTAACGGATGAATAATCCCTCAATATAAATATCTCTCACTTATTTAAA”: the “cleaved RNA product abundance” value by setting is: under setting [1], 0.0838; under setting [2], 0.162.

In the case of “ACAGACGAAGGAGCCGCAAAGAAGTTATTAAGGGATGAATAATCACTAAATATAAATATCTCTCACTTATTTAAA”, the “cleaved RNA product abundance” value under setting [2] was determined as 0.142.

Consider “ACAGACGAAGGAGCCGCAAAGAAGTAATTAAGGGATGAATAAACCCTCATTATAAATATCTCTCACTTATTTAAA”, for which the “cleaved RNA product abundance” value under setting [2] came to 0.148.

Consider “CGACATGTCCCGCTTCTTTCATTAATCCGTTAGAAACAGTTTTGCTATATATATTTACATTTTAAGAGGAGGAAT”, for which the “cleaved RNA product abundance” value under setting [3] worked out at 0.362.

Consider “CGACATGTCCCGCTTCTTTCATTAATCCATTATCAACTGTTTTGCTATATACATTTACCTTTTAAGAGGAGGAAT”, for which the “cleaved RNA product abundance” value under setting [3] is 0.224.

On to “ACAGACGAAGGAGCCGCAAAGAAATTATTAAGTGATGAATAATCCCTCAAAATAAATATCTCTCACTTATTTAAA”, for which the “cleaved RNA product abundance” value was 0.117 under setting [1] and 0.0994 under setting [2].

On to “CGACATGTCCCGCTTCTTTCATTAATCCGTTAGCAACTGTTTTGATATATACATATACCTTTTAAGAGGAGGAAT”, for which, under setting [3], the “cleaved RNA product abundance” value was 0.572.

Regarding “ACAGACGAAGGAGCCGCAAAGAAGTTATTAAGAGATGAATAATCCCTCAATATAAATATCTCTCACTTATTTAAA”, the “cleaved RNA product abundance” value under setting [1] was 0.111, the “cleaved RNA product abundance” value under setting [2] worked out at 0.147 and the “cleaved RNA product abundance” value under setting [4] came to 0.135.

For “ACAGACGAAGGAGCCGCAAAGAAGTTATCAAGGGATAAATAATCCCTCAATATAAATATCTCTCACTTATTTAAA”, the “cleaved RNA product abundance” value under setting [2] turned out to be 0.234.

In the case of “CGACATGTCCCGCTTCTTTCATTAATCATTTAGCAACTGTTTTGCTATATACATTTACCTTTTAAGAGGAGGAAT”, under setting [3], the “cleaved RNA product abundance” value was found to be 0.249.

As for “CGACATGTCCCGCTTCTTTCATTACTCCGTTAGCAGCTGTTTTGCTATATACATTTACCTTTTAAGAGGAGGAAT”, the “cleaved RNA product abundance” value under setting [3] was determined as 0.827.

In the case of “ACAGACGAAGGAGCCGCAAAGAAGTTATTAAGGGATGAACAATCCCTCAACATAAATATCTCTCACTTATTTAAA”, the “cleaved RNA product abundance” value under setting [2] was 0.265.

For the sequence “CGACATGTCCCGCTTCTTTCATTAATCCGTAAGCTACTGTTTTGCTATATACATTTACCTTTTAAGAGGAGGAAT”, under setting [3], the “cleaved RNA product abundance” value is 0.123.

Take “ACAGACGAAGGAGCCGCAAAGAAGTTATTATGGGATTAATAATCCCTCAATATAAATATCTCTCACTTATTTAAA”: the “cleaved RNA product abundance” value by setting is: under setting [1], 0.352; under setting [2], 0.307.

“ACAGACGAAGGAGCCGCAAATAAGTTATTAAGGCATGACTAATCCCTCAATATAAATATCTCTCACTTATTTAAA”: the “cleaved RNA product abundance” value under setting [2] worked out at 0.144.

For “CGACATGTCCCGCTTCTTTCATTAATCCGTTAGCAACTAATTTGCTATATACATTTACCTTTTAAGAGGAGGAAT”, the “cleaved RNA product abundance” value under setting [3] amounted to 1.85.

With “ACAGACGAAGGAGCCGCAAAGAAGTTATTAGGGGATGAATAATCCCTTAATATAAATATCTCTCACTTATTTAAA”, the “cleaved RNA product abundance” value under setting [2] is 0.808.

“CGACATGTCCCGCTTCTTTCATTAATCCGTTAGAAACTGTTTTTCTATATACATTTACCTTTTAAGAGGAGGAAT”: the “cleaved RNA product abundance” value under setting [3] was found to be 0.511.

Take “ACAGACGAAGGAGCCGCAAAGAATTTATTAAGGGATGAATAATCCCTCAATATAAATGTCTCTCACTTATTTAAA”: the “cleaved RNA product abundance” value under setting [2] turned out to be 0.282.
